Measurements reported in patent US20230364000A1, “COMPOSITIONS COMPRISING COMBINATIONS OF COLLAGEN OR ELASTIN POLYPEPTIDES WITH ACTIVE INGREDIENTS AND METHODS OF USING SAME” (Geltor, Inc., priority 2020, published 2023).

Experiments:
facial skin [1] = experiment: Cutometer skin firmness and elasticity, clinical study of Example 3; format: in vivo, human; conditions: 0.1% w/w topical formulation; for Cutometer Elasticity (R5 Ur/Ue) Mean ± SD / Cutometer Firmness (R0 Uf) Mean ± SD / Cutometer Elasticity (R2 Ua/Uf) Mean ± SD: n 14; for Cutometer Elasticity (R5 Ur/Ue) Mean ± SD: baseline 0.28 ± 0.06; for Cutometer Firmness (R0 Uf) Mean ± SD: baseline 0.35 ± 0.06; for Cutometer Elasticity (R2 Ua/Uf) Mean ± SD: baseline 0.64 ± 0.09
Experimental: A clinical study using human subjects to determine the effects of a topical skincare product containing truncated human type 21 collagen (SEQ ID NO: 16) is performed. The research is performed according to U.S. and International standards of Good Clinical Practice (FDA and ICH guidelines) and applicable government regulations.
A base formulation (control formulation) made of water, olive oil glycereth-8 esters, glycerin, coconut alkanes, hydroxyethyl acrylate/sodium acryloyldimethyl taurate copolymer, pentylene glycol, disodium EDTA, caprylyl glycol, chlorphenesin, phenoxyethanol is prepared. A formulation containing the truncated human type 21 collagen is prepared by adding sufficient collagen to prepare a topical formulation containing 0.1% w/w collagen.
The Cutometer MPA 580 (Courage+Khazaka, Germany) measures the viscoelastic properties of the skin by applying suction to the skin surface, drawing the skin into the aperture of the probe and determining the penetration depth using an optical measuring system.
The Cutometer outputs include many parameters of different portions of the measurement curve including of R0 (Uf, firmness), R2 (Ua/Uf, gross elasticity), R5 (Ur/Ue, net elasticity), R7 (Ur/Uf, elastic portion) and R9 (R3 [last max amp]-R0 [Uf], fatigue).
All subjects have Cutometer measurements taken on the left or right cheek (following a prepared randomization code) at baseline, immediately post-initial-application, and at weeks 2, 4, and 8. Skin elasticity is reported using the R5 (Ur/Ue) and R2 (Ua/Uf) parameter. As the skin becomes more elastic, this value will increase. Skin Firmness is reported using the R0 (Uf) parameter. As the skin becomes firmer, this value will decrease. Assessment location is recorded on a face map for each subject for consistency of measurements between visits.
Improvements in skin hydration, firmness, and elasticity were statistically significant.

facial skin [2] = experiment: Cutometer facial skin elasticity, clinical study of Example 5; format: in vivo, human; conditions: topical facial serum 0.1%, n=15, FIG. 6
Text: In a clinical study (n=15 subjects), subjects used a topical facial serum containing 0.1% of a polypeptide of SEQ ID NO: 16 for 8 weeks, after using a protein-free base facial serum for a 1-week washout period. Topical application of a polypeptide of SEQ ID NO: 16 was associated with increased skin elasticity, measured using a cutometer.

[3] = system: Human full-thickness skin equivalents (MatTek Epiderm FT co-culture tissue models); experiment: Fibronectin production in human full-thickness skin equivalents (ELISA); format: cell-based; conditions: polypeptide 0.1% w/w, FIG. 19

B1: SEQ ID NO: 16: truncated human collagen type 21 alpha 1 without the DsbA secretion tag, recombinantly expressed in E. coli (protein)
chain: AGFPGLPGPAGEPGRHGKDGLMGSPGFKGEAGSPGAPGQDGTRGEPGIPGFPGNRGLMGQKGEIGPPGQQGKKGAPGMPGLMGSNGSPGQPGTPGSKGSKGEPGIQGMPGASGLKGEPGATGSPGEPGYMGLPGIQGKKGDKGNQGEKGIQGQKGENGRQGIPGQQGIQGHHGAKGERGEKGEPGVR
Cutometer Elasticity (R2 Ua/Uf) Mean Percent Improvement From BL mean (facial skin [1]; Immediate): 45.85%
Cutometer Elasticity (R5 Ur/Ue) Mean Percent Improvement From BL mean (facial skin [1]; Immediate): 44.57%
Cutometer Elasticity (R5 Ur/Ue) Percent of Subjects Showing Improvement From BL (facial skin [1]; Immediate): 92.9%
Cutometer Firmness (R0 Uf) Mean Percent Improvement From BL mean (facial skin [1]; Immediate): 30.38%
Cutometer Firmness (R0 Uf) Percent of Subjects Showing Improvement From BL (facial skin [1]; Immediate): 100%
Cutometer Elasticity (R5 Ur/Ue) Mean ± SD (facial skin [1]; Immediate, P-value <0.001*): 0.40 ± 0.09
Cutometer Firmness (R0 Uf) Mean ± SD (facial skin [1]; Immediate, P-value <0.001*, value decreases as skin becomes firmer): 0.24 ± 0.05
Cutometer Elasticity (R2 Ua/Uf) Mean ± SD (facial skin [1]; Immediate, P-value <0.001*): 0.93 ± 0.13
Cutometer Elasticity (R2 Ua/Uf) Mean Percent Improvement From BL mean (facial skin [1]; Week 2): 26.93%
Cutometer Elasticity (R5 Ur/Ue) Mean Percent Improvement From BL mean (facial skin [1]; Week 2): 33.36%
Cutometer Elasticity (R5 Ur/Ue) Percent of Subjects Showing Improvement From BL (facial skin [1]; Week 2): 92.9%
Cutometer Firmness (R0 Uf) Mean Percent Improvement From BL mean (facial skin [1]; Week 2): 11.27%
Cutometer Firmness (R0 Uf) Percent of Subjects Showing Improvement From BL (facial skin [1]; Week 2): 78.6%
Cutometer Elasticity (R5 Ur/Ue) Mean ± SD (facial skin [1]; Week 2, P-value <0.001*): 0.37 ± 0.08
Cutometer Firmness (R0 Uf) Mean ± SD (facial skin [1]; Week 2, P-value 0.028*): 0.31 ± 0.07
Cutometer Elasticity (R2 Ua/Uf) Mean ± SD (facial skin [1]; Week 2, P-value <0.001*): 0.80 ± 0.09
subjects showing improvement with an increase in skin elasticity (facial skin [2]; 2 weeks vs baseline): 100%
subjects showing improvement with an increase in skin elasticity (facial skin [2]; 4 weeks vs baseline): 100%
increase of fibronectin production relative to untreated control ([3]; day 4 supernatant, hyaluronic acid 0.1% w/w (low molecular weight, 15-40 kDa)): 67%
production of fibronectin as compared to untreated cells ([3]; each agent alone, day 4, retinol (10, unit not given), ascorbic acid 2% w/w, hyaluronic acid 0.1% w/w): increased production
